{"source": "paper PMC10039935", "about": "“Organic electrochemical transistors as on-site signal amplifiers for electrochemical aptamer-based sensing”", "molecular_target": "TGF-β1 (transforming growth factor beta 1) (UniProt P01137 279-390)", "sequence (P01137 279-390)": "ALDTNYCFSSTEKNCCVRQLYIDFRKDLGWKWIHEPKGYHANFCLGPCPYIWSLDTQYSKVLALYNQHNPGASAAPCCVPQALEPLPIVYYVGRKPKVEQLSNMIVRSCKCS", "experiment": "electrochemical aptamer sensor (CV/SWV, signal-off) with OECT readout; 1 mM MgCl2 in aptamer folding; aptamer on Au with MCH backfill; 1x PBS (selectivity test in bare 1x PBS); aptamer folded and MCH backfill in 1x PBS with 1 mM MgCl2; assay pH and temperature not stated", "settings": "chain copies: 2; label: 5' methylene blue; 3' thiol on Au electrode; single strand, folded"}
{"binder": "TGF-β1 aptamer (MB-modified) (XNA, partial phosphorothioate, 5' side of some A and C, printed as * : CG*CTCGG*CTTC*ACG*AG*ATT*CGTGT*CGTTGTGT*C*CTGT*A*C*C*CG*C*CTTG*A*C*C*AGT*C*ACT*CT*AG*AGC*AT*C*CGG*A*CTG; 5' amino C6; 3' iSpC3 and thiol C3) DNA: CGCTCGGCTTCACGAGATTCGTGTCGTTGTGTCCTGTACCCGCCTTGACCAGTCACTCTAGAGCATCCGGACTG", "values": [{"measurement": "binding result", "result": "binds"}]}
